Data as given in patent US20190112367A1 (IMMUNOQURE, published 2019).
Blank lines part the entries; values can stand above or below the binder they belong to.

Columns and labels:
IL-32alpha (ImmunoTools) [1] = molecular target: T1, IL-32alpha (ImmunoTools) (human, UniProt P24001-4 1-131, limits assumed); assay: ELISA, antigen coated on plate
T1 construct: Bought from ImmunoTools; also called IL-32α
T1 sequence (looked up): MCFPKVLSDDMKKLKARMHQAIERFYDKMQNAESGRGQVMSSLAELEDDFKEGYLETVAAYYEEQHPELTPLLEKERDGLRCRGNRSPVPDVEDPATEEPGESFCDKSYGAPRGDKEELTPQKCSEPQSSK
Method: (§1) EC50 binding of exemplary anti-IL-32 antibodies of the present invention to IL-32γ (R&D) or IL-32α (ImmunoTools), was determined by ELISA. Serial dilutions of MABs (from 100,000 ng/ml down to 1.69 ng/ml) were incubated for 2 hours with antigen-coated plates (coating overnight at 1 μg/ml in PBS, followed by wash out and blocking with 2% BSA in PBS). The plates were subsequently washed and binding of MABs was detected with anti-human HRP-conjugated Fc-gamma-specific secondary antibody (Jackson ImmunoResearch, Europe Ltd., Cambridgeshire, UK). Concentrations of MAB resulting in half of maximal binding to respective antigens (EC50, ng/ml) were calculated using Prism 4 GraphPad software on sigmoidal dose-response curves (variable slope, 4 parameters) obtained by plotting the log of the concentration versus OD 450 nm measurements; for the results see FIG. 3 and Table 4 below.

IL-32alpha (ImmunoTools) [2] = molecular target: T1, IL-32alpha (ImmunoTools); assay: ELISA, antigen coated at 1 µg/ml, serial dilutions of MAB
Method: as §1

B1: anti-IL-32 antibody 14B3 (IgG1, lambda) (antibody)
heavy: not shown
light: SYELTQPPSVSVSPGQTARITCSGDALPETYVYWYQQKSGQAPVKLIYEDSERPSGIPERFSGSSSGTLATLTISGAHVEDEADYYCYSTDSSGIGVFGGGTKLTVLSQPKAAPSVTLFPPSSEELQANKATLVCLISDFYPGAVTVAWKADSSPVKAGVETTTPSKQSNNKYAASSYLSLTPEQWKSHKSYSCQVTHEGSTVEKTVAPTECS
notes: also called MAB 14B3
binding result (IL-32alpha (ImmunoTools) [1]): no binding (tested: 100 ug/ml (highest concentration tested))

B2: anti-IL-32 antibody 19A1 (IgG1, lambda) (antibody)
heavy: not shown
light: B1 light
notes: also called MAB 19A1
binding result (IL-32alpha (ImmunoTools) [1]): no binding (tested: 100 ug/ml (highest concentration tested))

B3: anti-IL-32 antibody 26A6 (IgG1, lambda) (antibody, V domains shown)
VH: QVQLVESGGGVVQPGRSLRLSCVASGLTFRTYGMHWVRQAPGNGLEWVAIIWHDGNKKYFADSVKGRFTISRDNSKNSLYLQMNSLRVEDTAVYYCAREMNGIDVWGQGTTVTVSS
VL: SYELTQPPSVSVSPGQTARITCSGDALPETYVYWYQQKSGQAPVKLIYEDSERPSGIPERFSGSSSGTLATLTISGAHVEDEADYYCYSTDSSGIGVFGGGTKVTVLS
notes: IgG1, lambda; also called MAB 26A6
binding result (IL-32alpha (ImmunoTools) [1]): no binding (tested: 100 ug/ml (highest concentration tested))

EC50 (IL-32alpha (ImmunoTools) [2]): > 30 µg/mL
B4: anti-IL-32 antibody 2C2 (IgG3, lambda) (antibody, V domains shown)
VH: QLRVQESGPGLLKPAETLSLTCSVSSGSVSNSRYYWAWIRQSPGKGLEWIGSMYYRGRSYYNPSLKSRLTISIDTSKNQFSLKLTSLTAADTAVYYCAAAVYHDLDYWGQGTLVTVSS
VL: QSVLTQPPSVSAAPGQKVTISCSGSGSSIGNNYVSWYQQLPGAAPKLLIYDNTKRPSGIPDRFSGSKSGTSATLAITGLQPGDAADYYCGTWDSSFSVFWVFGGGTKLTVLS
notes: Human patient-derived antibody, recombinantly expressed; the chains are put together from these; also called MAB 2C2; exemplary anti-IL-32 2C2 antibody
